Experimental data as given in PMC3932411.

Key:
[1] = cell surface biotinylation, Western blot; details: glycan lost; control: wild type
[2] = I-V relationship, plateau phase; details: glycan lost; control: wild type
[3] = whole-cell patch clamp, +100 mV; details: glycan lost; control: untreated WT (DMSO)
[4] = I-V relationship; details: glycan lost; control: untreated WT (DMSO)

Substance | localisation_or_trafficking [1] | other: channel voltage dependence [2] | other: channel deactivation kinetics, other: deactivation slope [3] | other: channel voltage dependence [4]
TRPM4 (TRPM4b): N992Q | no change | no change | – | –
TRPM4 (TRPM4b): tunicamycin (10 μg/ml; 19 h) | – | – | no change, 5265 ± 572 vs 4855 ± 379 | no change
